Experimental data: patent publication US7618787B2, “Method of screening compound capable of accelerating or inhibiting apoptosis, apoptosis accelarator and apoptosis inhibitor” (Hisamitsu Pharmaceutical Co., Inc., priority 2004, dated 2009)

Legend:
[1] = test system: p53; assay: Luciferase reporter assay, p53-dependent transcriptional activation in H1299 cells; type: cell-based, human; conditions: H1299, coexpression with p53 (FIG. 22)
Description: H1299 cells deficient in p53 were seeded at a density of 5×10^4 cells/well onto a 12-well tissue culture dish and transiently transfected with 100 ng of luciferase reporter construct (which carried a p53/p73-responsive element derived from a p21^WAF1, Bax, or MDM2 promoter), 10 ng of pRL-TK Renilla luciferase cDNA, and 25 ng of given expression plasmid (p53, HA-p73α, or HA-p73β) together with or without varying amounts of IKK-α or FLAG-IKK-β expression plasmids. The total amount of DNA per transfection was kept constant (510 ng) with a pcDNA3 empty plasmid. After 48 hours from the transfection, the cells were washed twice with ice-cold PBS and suspended in passive lysis buffer (Promega). Both firefly and Renilla luciferase activities were assayed by use of dual-luciferase reporter assay system (Promega) according to the instruction. […] intensity was measured with TD-20 luminometer (Turner Design). The firefly luciferase signal was normalized based on the Renilla luciferase signal. Results obtained from at least 3 transfections were indicated by mean value±standard deviation.
To explore the functional implication of interaction between IKK-α and p73, the effect of IKK-α on p73-mediated transcriptional activation was first examined. […]

[2] = molecular target: T1, p73 (Homo sapiens, UniProt O15350); assay: Co-immunoprecipitation with p73 in transfected COS7 cells; type: binding; conditions: COS7, data not shown
T1 construct: expressed in transfected cells; host or cells: COS7
T1 sequence (O15350 1-499 isoform O15350-2): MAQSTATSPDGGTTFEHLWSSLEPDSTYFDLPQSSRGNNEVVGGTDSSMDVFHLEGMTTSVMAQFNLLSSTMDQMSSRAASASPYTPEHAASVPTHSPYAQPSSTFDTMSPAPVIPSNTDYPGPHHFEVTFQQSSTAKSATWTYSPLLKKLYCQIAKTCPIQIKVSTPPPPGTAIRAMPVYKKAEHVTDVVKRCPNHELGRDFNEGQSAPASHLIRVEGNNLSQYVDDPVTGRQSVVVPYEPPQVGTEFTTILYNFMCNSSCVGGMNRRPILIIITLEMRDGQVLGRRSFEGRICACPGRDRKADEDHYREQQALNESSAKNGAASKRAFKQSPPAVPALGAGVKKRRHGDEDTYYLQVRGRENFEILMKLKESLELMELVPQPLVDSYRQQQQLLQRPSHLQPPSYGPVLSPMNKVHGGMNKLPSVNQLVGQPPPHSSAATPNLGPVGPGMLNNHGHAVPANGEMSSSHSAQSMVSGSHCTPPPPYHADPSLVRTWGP
Description: (§1) Whole cell lysates were centrifuged at 15000 rpm for 15 minutes to remove cell debris. The obtained supernatant was pretreated at 4° C. for 30 minutes with protein G-Sepharose (50% slurry, 30 μL; Amersham Pharmacia Biotech). After centrifugation, the supernatant was incubated at 4° C. for 2 hours with an anti-HA polyclonal (Medical and Biological Laboratories) or anti-FLAG monoclonal antibody. The immunocomplexes were precipitated at 4° C. for 30 minutes with protein G-Sepharose beads. After collection by brief centrifugation, the immunoprecipitates were washed three times with lysis buffer, then suspended in 30 μL of 2×Laemmli SDS sample buffer, and treated at 100° C. for 5 minutes. The supernatant was loaded onto 10% SDS-PAGE and analyzed by immunoblot as described above.
(§2) To investigate whether IKK-α interacted with p73 in cultured mammal cells, whole cell lysates were prepared from transfected COS7 cells, then immunoprecipitated with an anti-FLAG or anti-HA antibody, and analyzed by immunoblot using an anti-p73 or anti-FLAG antibody, respectively. […] Likewise, HA-p73β was co-immunoprecipitated with FLAG-IKK-α (data not shown). […] To identify determinants of p73 participating in the interaction with IKK-α, several deletion mutants of p73 fused to GST were prepared and examined for their abilities to bind to FLAG-IKK-α by in-vitro pull-down assay. These mutants were designed on the basis of the functional domains of p73 including transactivation, DNA-binding, oligomerization, and SAM domains (FIG. 12).

[3] = molecular target: T2, p73 (Homo sapiens, UniProt O15350); assay: as above; type: binding; conditions: COS7, co-immunoprecipitation (FIG. 10, FIG. 28)
T2 construct: expressed in transfected cells; host or cells: COS7
T2 sequence (O15350 1-636): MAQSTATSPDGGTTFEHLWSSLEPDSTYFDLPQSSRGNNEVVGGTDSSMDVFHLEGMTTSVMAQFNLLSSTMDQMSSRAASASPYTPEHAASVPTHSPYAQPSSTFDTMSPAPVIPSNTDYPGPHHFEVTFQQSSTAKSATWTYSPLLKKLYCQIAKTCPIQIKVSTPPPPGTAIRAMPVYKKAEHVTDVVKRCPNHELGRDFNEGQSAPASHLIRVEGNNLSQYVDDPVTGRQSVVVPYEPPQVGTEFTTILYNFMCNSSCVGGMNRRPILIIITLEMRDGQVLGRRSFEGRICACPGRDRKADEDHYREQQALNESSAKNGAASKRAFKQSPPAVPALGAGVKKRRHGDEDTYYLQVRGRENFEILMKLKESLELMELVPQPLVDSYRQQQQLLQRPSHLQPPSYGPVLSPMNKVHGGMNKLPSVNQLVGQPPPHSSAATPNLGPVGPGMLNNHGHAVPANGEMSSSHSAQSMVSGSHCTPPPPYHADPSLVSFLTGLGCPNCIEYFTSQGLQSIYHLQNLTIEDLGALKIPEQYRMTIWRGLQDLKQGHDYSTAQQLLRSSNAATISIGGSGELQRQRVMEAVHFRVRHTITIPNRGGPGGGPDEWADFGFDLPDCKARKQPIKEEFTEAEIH
Description: as §1, §2

- co-immunoprecipitation with HA-p73β [2]: co-immunoprecipitated
- complex formation with HA-p73α [3]: formed stable complexes
B1: IKK-α: IKK-α protein, amino acid sequence SEQ ID NO: 24, expressed from plasmid; apoptosis enhancer (protein, listed as Homo sapiens)
chain: MERPPGLRPGAGGPWEMRERLGTGGFGNVCLYQHRELDLKIAIKSCRLELSTKNRERWCHEIQIMKKLNHANVVKACDVPEELNILIHDVPLLAMEYCSGGDLRKLLNKPENCCGLKESQILSLLSDIGSGIRYLHENKIIHRDLKPENIVLQDVGGKIIHKIIDLGYAKDVDQGSLCTSFVGTLQYLAPELFENKPYTATVDYWSFGTMVFECIAGYRPFLHHLQPFTWHEKIKKKDPKCIFACEEMSGEVRFSSHLPQPNSLCSLIVEPMENWLQLMLNWDPQQRGGPVDLTLKQPRCFVLMDHILNLKIVHILNMTSAKIISFLLPPDESLHSLQSRIERETGINTGSQELLSETGISLDPRKPASQCVLDGVRGCDSYMVYLFDKSKTVYEGPFASRSLSDCVNYIVQDSKIQLPIIQLRKVWAEAVHYVSGLKEDYSRLFQGQRAAMLSLLRYNANLTKMKNTLISASQQLKAKLEFFHKSIQLDLERYSEQMTYGISSEKMLKAWKEMEEKAIHYAEVGVIGYLEDQIMSLHAEIMELQKSPYGRRQGDLMESLEQRAIDLYKQLKHRPSDHSYSDSTEMVKIIVHTVQSQDRVLKELFGHLSKLLGCKQKIIDLLPKVEVALSNIKEADNTVMFMQGKRQKEIWHLLKIACTQSSARSLVGSSLEGAVTPQTSAWLPPTSAEHDHSLSCVVTPQDGETSAQMIEENLNCLGHLSTIIHEANEEQGNSMMNLDWSWLTE
- p53-responsive reporter gene activity [1]: not induced
